We go through eleven molecules from patent US20240262922A1 (Merck KGaA, published 2024).

In assay [1] the target is T1, recombinant human OX40L protein (R&D Systems, cat. #1054-OX) (human, UniProt P23510 51-183).
T1 sequence: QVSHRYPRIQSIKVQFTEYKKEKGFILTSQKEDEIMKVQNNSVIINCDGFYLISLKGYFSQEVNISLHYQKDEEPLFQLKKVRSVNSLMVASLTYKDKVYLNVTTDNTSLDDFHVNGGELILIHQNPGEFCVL
Kind of assay: cell-based or functional assay.

The target of assay [2] is T2, AVI-GST-His6-hOX40L (human, UniProt P23510 51-183).
T2 sequence: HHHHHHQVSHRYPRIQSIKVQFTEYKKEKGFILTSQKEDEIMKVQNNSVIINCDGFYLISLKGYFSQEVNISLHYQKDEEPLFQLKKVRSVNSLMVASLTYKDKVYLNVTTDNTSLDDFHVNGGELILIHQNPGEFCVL
Kind of assay: cell-based or functional assay.

The target of assay [3] is T1, recombinant human OX40L protein (R&D …). The experiment in a line: SPR steady state, Biacore T200; OX40L immobilised on CM5, antibody in solution. The protocol:
(§1) Recombinant OX40L proteins (human OX40L protein, R&D systems, cat. #1054-OX; cynomolgus monkey OX40L, Novoprotein cat. #CP72) were immobilized onto Biacore CM5 sensor chips and anti-OX40L antibodies were bound to this surface at a range of concentrations. The response at steady state was measured with a Biacore T200 instrument (GE Healthcare) and plotted against the concentration of antibody and fit to a 1:1 binding model. The steady state KD was determined as the antibody concentration at a response equal to half the maximal response (Rₘₐₓ).
Steady state affinity assay was performed as described in section 1.1.7 of Example 1.

Another assay concerns the target T3, mouse OX40L (mouse, UniProt P43488 51-198, limits assumed).
T3 sequence: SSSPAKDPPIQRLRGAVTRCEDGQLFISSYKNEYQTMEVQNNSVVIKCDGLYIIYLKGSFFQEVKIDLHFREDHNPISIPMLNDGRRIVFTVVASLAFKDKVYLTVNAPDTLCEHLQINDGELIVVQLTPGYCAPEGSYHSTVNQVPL
The experiment in a line: flow cytometry on CHO-S cells / ELISA on recombinant protein (sentence does not say which).

The target in assay [4] is T4, recombinant cynomolgus monkey OX40L (Novoprotein cat. #CP72) (cynomolgus monkey, UniProt P23510 51-183 (human entry), limits assumed).
T4 construct: Bought protein; also called cynomolgus OX40L
T4 chain: T1 sequence with R5Q, K23E
Kind of assay: flow cytometry on CHO-S-OX40L cells / ELISA on recombinant OX40L (sentence does not say which).

For assay [5], the target named is T1, recombinant human OX40L protein (R&D …). The experiment in a line: SPR steady state, Biacore T200; OX40L immobilised on CM5, FcFab in solution. How it is done:
as §1
As with the IgG clones, binding affinity to human OX40L was determined for all twelve FcFabs using steady state affinity assay as described in section 1.1.7 of Example 1. […]

The target is the same in assay [6]. The experiment in a line: cell-based or functional assay. The source holds these as a separate data set.
Assay [7] deals with T2, AVI-GST-His6-hOX40L. Kind of assay: cell-based or functional assay. The source holds these as a separate data set.

Where a chain is given by its changes, count along the chain named. Where two headings read alike, the source gives them in different places.

B1: 88B06 (IgG) (antibody)
heavy: not shown
light: SYELTQPLSVSVALGQTARISCGGNNIGRKNVHWYQQKPGQAPVLVIYGDSNRPSGIPERFSGSNSGNTATLTIGRAQAGDEADYYCQVWDSSTVFGGGTKLTVLGQPKAAPSVTLFPPSSEELQANKATLVCLISDFYPGAVTVAWKADSSPVKAGVETTTPSKQSNNKYAASSYLSLTPEQWKSHKSYSCQVTHEGSTVEKTVAPTECS
Take B1: the “Primary T cell activation assay IC50” value in assay [1] came out at 28.5 nM. In addition, the “OX40L neutralization/OX40-HEK Reporter IC50” value with AVI-GST-His6-hOX40L [2] is 18.9 nM. For the same molecule, the Kd in assay [3] worked out at 23.2 nM. Moreover, the binding result with mouse OX40L is reported as “no binding”; in assay [4] it was “binds”.

B2: 85F12 (FcFab) (antibody)
chain 1: EPKSSDKTHTCPPCPAPPVAGPSVFLFPPKPKDTLMISRTPEVTCVVVDVSHEDPEVKFNWYVDGVEVHNAKTKPREEQYNSTYRVVSVLTVLHQDWLNGKEYKCAVSNKALPSSIEKTISKAKGQPREPQVYTLPPSREEMTKNQVSLTCLVKGFYPSDIAVEWESNGQPENNYKTTPPVLDSDGSFFLYSKLTVDKSRWQQGNVFSCSVMHEALHNHYTQKSLSLSPGAGGGGSGGGGSGGGGSQVQLQQSGPGLVKPSQTLSLTCAISGDSVSSNSAVWNWIRQSPSRGLEWLGRTDYRSKWNNDYAVSVKSRITINPDTSKNQFSLQLNSVTPEDTAVYYCARGDAGMASFDYWGQGTLVTVSSASTKGPSVFPLAPSSKSTSGGTAALGCLVKDYFPEPVTVSWNSGALTSGVHTFPAVLQSSGLYSLSSVVTVPSSSLGTQTYICNVNHKPSNTKVDKRVEPKSC
chain 2: SSELTQPPSVSVSPGQTASITCSGDKLGDKYACWYQQKAGQSPVVVIYQDRKRPSGIPERFSGSNSGNTATLTISGTQAMDEADYYCQTWDRRTAVFGGGTKLTVLGQPKAAPSVTLFPPSSEELQANKATLVCLISDFYPGAVTVAWKADSSPVKAGVETTTPSKQSNNKYAASSYLSLTPEQWKSHKSYSCQVTHEGSTVEKTVAPTECS
Regarding B2, the Kd in assay [5] stood at 34.1 nM. The “Primary T cell activation assay IC50” value in assay [6] is > 161 nM. For the same molecule, the “OX40L neutralization/OX40-HEK Reporter IC50” value with AVI-GST-His6-hOX40L [7] is > 161 nM.

B3: 85F12 (IgG) (antibody)
heavy: not shown
light: B2 chain 2
As to B3, the Kd in assay [3] stood at 75.6 nM. For the same molecule, the figures for the binding result (with mouse OX40L; in assay [4]) were “no binding” and “binds”, respectively.

B4: 84E11 (IgG) (antibody)
heavy: not shown
light: SSELTQDPAVSVALGQTVRITCQGDSLRNYFANWYQQKPGQAPVLVIYGKNNRPSGIPDRFSGSSSGNTASLTITGAQAEDEADYYCNSRDSSGYHVVFGGGTKLTVLGQPKAAPSVTLFPPSSEELQANKATLVCLISDFYPGAVTVAWKADSSPVKAGVETTTPSKQSNNKYAASSYLSLTPEQWKSHKSYSCQVTHEGSTVEKTVAPTECS
Turning to B4, in assay [1], the “Primary T cell activation assay IC50” value was 8.8 nM. Besides, in the assay with AVI-GST-His6-hOX40L [2], the “OX40L neutralization/OX40-HEK Reporter IC50” value is 17.7 nM. The Kd in assay [3] is 39.5 nM. Moreover, the figures for the binding result (in the assay with mouse OX40L; in assay [4]) were “no binding” and “binds”, respectively.

B5: 89B09 (IgG) (antibody)
heavy: not shown
light: SSELTQDPAVSVALGQTVRITCQGDSVRRFFAHWYQQKPGQAPILVISGKDTRPSGIPDRFSGSISGNTASLTITGAQAEDEADYYCNSRDSSGYLVLFGGGTKLTVLGQPKAAPSVTLFPPSSEELQANKATLVCLISDFYPGAVTVAWKADSSPVKAGVETTTPSKQSNNKYAASSYLSLTPEQWKSHKSYSCQVTHEGSTVEKTVAPTECS
As to B5, the “Primary T cell activation assay IC50” value in assay [1] worked out at 10.7 nM. Moreover, the “OX40L neutralization/OX40-HEK Reporter IC50” value with AVI-GST-His6-hOX40L [2] is 4.4 nM. Moreover, in assay [3], the dissociation constant Kd was 31.6 nM. For the same molecule, the binding result with mouse OX40L is listed as “no binding”; in assay [4], “binds”.

B6: 98C01 (IgG) (antibody)
heavy: not shown
light: SYELTQPPSVSVALGQTARITCGGNNIENKNVHWYQQKPGQAPVLVIYRDSNRPSGIPERFSGSNSGNTATLSINRAQAGDEADYYCQVWDSNTVVFGGGTKLTVLGQPKAAPSVTLFPPSSEELQANKATLVCLISDFYPGAVTVAWKADSSPVKAGVETTTPSKQSNNKYAASSYLSLTPEQWKSHKSYSCQVTHEGSTVEKTVAPTECS
On to B6, for which the “Primary T cell activation assay IC50” value in assay [1] turned out to be 12.9 nM. The “OX40L neutralization/OX40-HEK Reporter IC50” value with AVI-GST-His6-hOX40L [2] worked out at 3.6 nM. For the same molecule, in assay [3], the dissociation constant Kd was determined as 17.7 nM. The results for the binding result (with mouse OX40L; in assay [4]) were “no binding” and “binds”, respectively.

B7: 85F10 (FcFab) (antibody)
chain 1: EPKSSDKTHTCPPCPAPPVAGPSVFLFPPKPKDTLMISRTPEVTCVVVDVSHEDPEVKFNWYVDGVEVHNAKTKPREEQYNSTYRVVSVLTVLHQDWLNGKEYKCAVSNKALPSSIEKTISKAKGQPREPQVYTLPPSREEMTKNQVSLTCLVKGFYPSDIAVEWESNGQPENNYKTTPPVLDSDGSFFLYSKLTVDKSRWQQGNVFSCSVMHEALHNHYTQKSLSLSPGAGGGGSGGGGSGGGGSEVQLLESGAGLLKPSETLSLTCAVYGGSFSDYYWSWIRQPPGKGLEWIGEINHSGSTNYNPSLKSRVTISVDTSKNQFSLKLSSVTAADTAVYYCARKRGANFFDDWGQGTLVTVSSASTKGPSVFPLAPSSKSTSGGTAALGCLVKDYFPEPVTVSWNSGALTSGVHTFPAVLQSSGLYSLSSVVTVPSSSLGTQTYICNVNHKPSNTKVDKRVEPKSC
chain 2: B6 light with P8L, Y48K, F61L, S73T, N75S, N93S
As to B7, in assay [5], the dissociation constant (Kd) came out at 50.1 nM. Further, in assay [6], the “Primary T cell activation assay IC50” value was determined as 6.3 nM. For the same molecule, the “OX40L neutralization/OX40-HEK Reporter IC50” value with AVI-GST-His6-hOX40L [7] was > 161 nM.

B8: 68F03 (IgG) (antibody)
heavy: not shown
light: B6 light with Y2F, P8L, N25I, W34Y, S51T, S73T, N75S, V96I, L103V
Consider B8, for which the “Primary T cell activation assay IC50” value in assay [1] was 18.8 nM. For the same molecule, the “OX40L neutralization/OX40-HEK Reporter IC50” value with AVI-GST-His6-hOX40L [2] was 5.7 nM. The Kd in assay [3] worked out at 25.8 nM.

B9: 98E10 (IgG) (antibody)
heavy: not shown
light: B6 light with P8L, K38M, S73T, L103V
B9: in assay [1], the “Primary T cell activation assay IC50” value is 8.8 nM. Also, the “OX40L neutralization/OX40-HEK Reporter IC50” value in the assay with AVI-GST-His6-hOX40L [2] came to 5.4 nM. The Kd in assay [3] came to 32.8 nM. Moreover, the results for the binding result (with mouse OX40L; in assay [4]) were “no binding” and “binds”, respectively.

B10: 30F02 (IgG) (antibody)
heavy: not shown
light: B6 light with E3V, P8L, E28G, N29D, Y48S, S73T, N75S, A83S, N93S, L103V
Regarding B10, the “Primary T cell activation assay IC50” value in assay [1] is 12.4 nM. For the same molecule, the “OX40L neutralization/OX40-HEK Reporter IC50” value with AVI-GST-His6-hOX40L [2] was found to be 72.7 nM. Besides, in assay [3], the Kd came to 53.9 nM. Moreover, the results for the binding result (with mouse OX40L; in assay [4]) were “no binding” and “binds”, respectively.

B11: 85F10 (IgG) (antibody)
heavy: not shown
light: B6 light with P8L, Y48K, F61L, S73T, N75S, N93S
Consider B11, for which the “OX40L neutralization/OX40-HEK Reporter IC50” value with AVI-GST-His6-hOX40L [2] was found to be 54.6 nM. The dissociation constant (Kd) in assay [3] came to 28.2 nM. The binding result in the assay with mouse OX40L is reported as “no binding”; in assay [4] it was “binds”.
